The source of these data is the RNAGym collection of RNA variant scans (doi:10.1073/pnas.2313332121).

To fix the notation:
B1: TPR t1 (parent)
chain: GACCAAUCUGCCCUCAGAGCUCGAGAACAUCUUCGGAUGCAGAGGAGGCAGGCUUCGGUGGCGCGAUAGCGCCAACGUCCUCAACCUCCAAUGCAUCCCACCACAUGAUGAUGCCUGAAGAGCCUUGGUUUUUUG

Variants of B1 are the subject of the data set. In words: polymerase ribozyme fitness, log enrichment relative to wild type (log ratio); higher = more active; in vitro selection for triplet polymerase activity. A digest of the protocol: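 Input and output libraries were sequenced on Illumina after a single in vitro selection round, run in triplicate on PCR-built, transcribed mutant libraries of each subunit of a heterodimeric triplet polymerase ribozyme. Selection annealed libraries to a biotinylated primer, the partner subunit and triplets, incubated them frozen at −7 °C, then gel-excised extended constructs for streptavidin-bead capture and RT-PCR. Genotypes with ≥10 input reads and ≥1 read per output were kept. Fitness is the logarithm, taken in base 2, of genotype enrichment divided by wild-type enrichment, using inverse-variance-weighted replicate averages.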
For the variant C85A C94U U112C, the “polymerase ribozyme fitness (log ratio)” value turned out to be 0.116.
With U87G C99U, the “polymerase ribozyme fitness (log ratio)” value was -3.22.
For the variant C86G C97U C115G, the “polymerase ribozyme fitness (log ratio)” value is -4.24.
The result for C89A C114A reads -2.6; that for A84U C101A U116G A121U, -0.796.
Regarding U87C U116A A121G, the “polymerase ribozyme fitness (log ratio)” value was found to be 1.1.
As to C88A C115G G120C C123A, the “polymerase ribozyme fitness (log ratio)” value came out at 0.0548.
With A84G G128C, the “polymerase ribozyme fitness (log ratio)” value was -3.48.
As for C86A G117U, the “polymerase ribozyme fitness (log ratio)” value was -4.28.
As for A83G A105G C115U, the “polymerase ribozyme fitness (log ratio)” value is -2.83.
Regarding A83C U126A, the “polymerase ribozyme fitness (log ratio)” value is -1.84.
Consider A84U U92G, for which the “polymerase ribozyme fitness (log ratio)” value was -3.25.
The result for C85U G113A G120U reads -2.7; that for U87G C104U G117A, -3.2.
The result for U87A reads 0.0155; that for U87C, 0.386.
The result for U87G reads 0.133; that for U87G G110U, -0.69; that for U87G G110A, -0.698.
Turning to C86G C98U, the “polymerase ribozyme fitness (log ratio)” value is -1.59.
For A84U C94G, the “polymerase ribozyme fitness (log ratio)” value was -1.24.
For A84U U112A, the “polymerase ribozyme fitness (log ratio)” value amounted to 0.956.
Turning to C88A A100U C115U, the “polymerase ribozyme fitness (log ratio)” value is -3.24.
In the case of C85A C89U U92G G117A, the “polymerase ribozyme fitness (log ratio)” value is -4.94.
In the case of C88G C115G, the “polymerase ribozyme fitness (log ratio)” value is -3.51.
Regarding C88G U96G, the “polymerase ribozyme fitness (log ratio)” value is -0.738.
Consider U87A C104G A111U, for which the “polymerase ribozyme fitness (log ratio)” value was -3.77.
C86U U96A U106G: the “polymerase ribozyme fitness (log ratio)” value was -4.25.
The value for C88A A121U was 0.835; that for C85U U106G was -2.74; that for A83G U116A was -3.6.
C85U C123U: the “polymerase ribozyme fitness (log ratio)” value is -1.28.
With U87A C97U C98U G120A, the “polymerase ribozyme fitness (log ratio)” value was -2.92.
For the variant C88A G113A C124A G135U, the “polymerase ribozyme fitness (log ratio)” value was -1.79.
For the variant C88G G113C, the “polymerase ribozyme fitness (log ratio)” value is -2.74.
As for C88G G113A, the “polymerase ribozyme fitness (log ratio)” value was -1.99.
The result for C86A U109A reads -5.39.
The result for C86U G120C reads 1.51.
The value for C89A G110U U132C was -4.16; that for A84G U92C U106G G113C was -4.32.
Take C85U A111U G122U: the “polymerase ribozyme fitness (log ratio)” value was -4.09.
In the case of A83C G113C, the “polymerase ribozyme fitness (log ratio)” value was -2.78.
Take A83C G113A: the “polymerase ribozyme fitness (log ratio)” value is -1.32.
With U87C U109C U130C, the “polymerase ribozyme fitness (log ratio)” value was -5.36.
C88A A111C: the “polymerase ribozyme fitness (log ratio)” value turned out to be 0.245.
Consider C88A G93U G120U, for which the “polymerase ribozyme fitness (log ratio)” value was -3.17.
The result for A83U C98A C123A U125A reads -4.08.
Take C88A G122A: the “polymerase ribozyme fitness (log ratio)” value was -1.31.
For C89A G113U, the “polymerase ribozyme fitness (log ratio)” value is -3.35.
The value for C88A C98A was -4.39; that for C88U C89A was -1.24.
As for C86U C98A, the “polymerase ribozyme fitness (log ratio)” value is -4.48.
In the case of C86G G120C, the “polymerase ribozyme fitness (log ratio)” value amounted to 0.661.
As for A84U G113A U132C G135A, the “polymerase ribozyme fitness (log ratio)” value is -1.31.
Turning to C88U A118G, the “polymerase ribozyme fitness (log ratio)” value was found to be 0.0785.
The value for C88A U96C G110C U132C was -4.37.
A83U G120U: the “polymerase ribozyme fitness (log ratio)” value is -1.06.
Regarding C88G A91C, the “polymerase ribozyme fitness (log ratio)” value was -2.11.
For A83G G127C, the “polymerase ribozyme fitness (log ratio)” value was -1.88.
The result for C88U A90G C99U reads -2.84; that for C88U U129A, -0.777.
In the case of C86G C115U, the “polymerase ribozyme fitness (log ratio)” value was -2.67.
Regarding C88A U125G, the “polymerase ribozyme fitness (log ratio)” value was -1.18.
Take U87C U106A G128C: the “polymerase ribozyme fitness (log ratio)” value is -1.61.
As for U87A C102A, the “polymerase ribozyme fitness (log ratio)” value was -2.11.
With U87A A105G, the “polymerase ribozyme fitness (log ratio)” value is -2.
As for C86U G93A, the “polymerase ribozyme fitness (log ratio)” value was -0.143.
For C86U C115G, the “polymerase ribozyme fitness (log ratio)” value was -1.57.
U87G U126G: the “polymerase ribozyme fitness (log ratio)” value is -1.84.
The result for C89A U112A A121U U131C reads 0.436; that for U87A G127U, -0.745.
As for C85G U106C, the “polymerase ribozyme fitness (log ratio)” value is -0.939.
Turning to A84G C102A, the “polymerase ribozyme fitness (log ratio)” value is -3.38.
As for C85U C86G A118C, the “polymerase ribozyme fitness (log ratio)” value is -3.84.
As for C85G C86U U92A, the “polymerase ribozyme fitness (log ratio)” value is -5.3.
Regarding C86A U106A, the “polymerase ribozyme fitness (log ratio)” value was determined as 0.119.
For C88G G117A G120C, the “polymerase ribozyme fitness (log ratio)” value is -4.17.
Take C85G C88U C123A: the “polymerase ribozyme fitness (log ratio)” value was -0.368.
As for C88U A91U C115G, the “polymerase ribozyme fitness (log ratio)” value was -3.9.
On to C88G U116G, for which the “polymerase ribozyme fitness (log ratio)” value is -3.52.
With C85G C115U, the “polymerase ribozyme fitness (log ratio)” value was -1.86.
As to C85U U92C G127U G128A, the “polymerase ribozyme fitness (log ratio)” value was -6.04.
The result for C88A U116G reads -2.94; that for C88A U116A, -3.6.
